Data on 10 molecules can be found in patent publication US20220017636A1 (Amgen, published 2022).

Where a chain is given by its changes, count along the chain named.

B1: 18081-E7 (scFv)
scFv: EVQLLESGPGLVKPSETLSLTCTVSGDSISSSRYYWGWIRQPPGKGLEWIGSIYYSGSTYYNPSLKSRVTISVDTSKNQFSLKLSSVTAADTAVYYCARGIFGVITYFDYWGQGTLVTVSSGGGGSGGGGSGGGGSELVMTQTPDSLAVSLGERATINCKSSQSVLYSSNNKNYLAWYQQKPGQPPKLLIYWASTRESGVPDRFSGSGSGTDFTLTISSLQAEDVAVYYCQQYYSTPLTFGGGTKVEIK
notes: scFv in bacterial lysate, detected with anti-Flag M2
B2: 18081-B9 (scFv)
scFv: B1 scFv with T143S, Y233F, L238I, G242Q, K245R, V246L
notes: as for B1
B3: 18081-H11 (scFv)
scFv: EVQLLESGPALVKPTQTLTLTCTFSGFSFTTHKMGVDWIRQPPGKALEWLALIYWNDDKRYSPSLQSRLTITKDTSKNQVVLTMTNMDPVDTATYYCAYRRYNWNYENWFDPWGQGTLVTVSSGGGGSGGGGSGGGGSELQMTQSPSSLSASVGDRVTITCQASQDISNYLNWYQQKPGKAPKLLIYAASSLQSGVPSRFSGSGSGTDFTLTISSLQPEDFATYYCQQSYTTPFTFGPGTKVEIK
notes: as for B1
B4: 18089-D11 (scFv)
scFv: B3 scFv with A10V, S62N, Q141V, Q162R, D166S, L171F, T231I, P238G, V242L
notes: as for B1
B5: 18089-C9 (scFv)
scFv: B3 scFv with A10T, Q162R, D166F, N169S, S203R, T231S
notes: as for B1
B6: 18179-G12 (scFv)
scFv: EVQLLESGAEVKKPGASVKVSCKASGYTFTRNGLSWVRQAPGQGLEWMGWISGYNGDTNYAQKLQGRGTMTTDTSTSTAYMELRSLRSDDTAVYYCARGRATFDYWGQGTLVTVSSGGGGSGGGGSGGGGSELVMTQSPSSLSASVGDRVTITCRASQGISNYLAWYQQKPGKVPKLLISAASTLQSGVPSRFSGSGSGTDFTLTISSLQPEDVATYYCQKYNSAPFTFGPGTKLEIK
notes: as for B1
B7: 18179-C1 (scFv)
scFv: B6 scFv with L235V, E236D
notes: as for B1
B8: 18182-G8 (scFv)
scFv: EVQLLESGGGLVKPGGSLRLSCAASGFTFSSYAMNWVRQAPGKGLEWVSAISGSGGGTYYADSGKGRFTISRDNSKNTLYLQMNSLRAEDTAVYYCATGKGVHLNFDYWGQGTLVTVSSGGGGSGGGGSGGGGSELVLTQPPSVSVAPGQTARITCGGNNIGSKSVHWYQQKPGQAPVMVVYDDNDRPSGIPERFSGSNSGNTATLTISRVEAGDEADYYCQVWDSSSDHVVFGGGTKLTVL
notes: as for B1
B9: 18182-H9 (scFv)
scFv: B8 scFv with K13Q, Y32H, N35S, G64V, G66A, N105G, Y169H, M179L, Y219F
notes: as for B1
B10: 18182-H12 (scFv)
scFv: B8 scFv with K13Q, N35S, A50T, G64V, N105G, V137M, P142H, M179L, S200F, T207I
notes: as for B1

One assay concerns the target T1, MAGEB2 peptide … (SEQ ID NO: 1) complexed with HLA-A*02:01 on the cell surface (human).
T1 construct: whole, on cells; also called pMAGE-HLA; MAGEB2 pMHC
The assay is described as follows: flow cytometry, peptide-loaded T2 cells.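 Further: binding of single-chain Fv antibody constructs, raised in XenoMouse, to peptide-pulsed T2 cells measured by flow cytometry.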
Procedure: (§1) Binding of pMAGE-HLA scFv constructs, generated from the XenoMouse, on peptide loaded T2 cells was evaluated by flow cytometry.
Consider B1, for which the Signal/background came out at 298.

The molecule B2 displayed a Signal/background of 153.

On to B3, for which the Signal/background was 32.

Regarding B4, the Signal/background stood at 78.

B5 showed a Signal/background of 39.

Regarding B6, the Signal/background turned out to be 42.

Take B7: the Signal/background is 43.

Turning to B8, the Signal/background came out at 289.

In the case of B9, the Signal/background came to 481.

Turning to B10, the Signal/background came out at 298.

For another assay, the target named is T2, STXBP5 peptide complexed with HLA-A*02:01 on T2 cells (human).
T2 construct: whole, on cells
In words: flow cytometry, peptide-loaded T2 cells.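 Further: binding of single-chain Fv antibody constructs, raised in XenoMouse, to peptide-pulsed T2 cells measured by flow cytometry.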
Procedure: as §1
Molecule B1 showed a Signal/background of 1.1.

Consider B2, for which the Signal/background stood at 1.

As for B3, the Signal/background stood at 0.9.

In the case of B4, the Signal/background is 1.1.

B5: the Signal/background was 1.

The molecule B6 gave a Signal/background of 0.9.

B7 came in with a Signal/background of 0.9.

B8 had a Signal/background of 1.

B9: the Signal/background worked out at 1.1.

On to B10, for which the Signal/background stood at 1.

In the next assay the target is T3, MB peptide complexed with HLA-A*02:01 on T2 cells (human).
T3 construct: whole, on cells
The assay is described as follows: flow cytometry, peptide-loaded T2 cells.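 Further: binding of single-chain Fv antibody constructs, raised in XenoMouse, to peptide-pulsed T2 cells measured by flow cytometry.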 On the technique in general: A flow cytometer gives signals particle by particle.
Procedure: as §1
Take B1: the Signal/background worked out at 1.

With B2, the Signal/background stood at 1.1.

B3 displayed a Signal/background of 1.

B4 came in with a Signal/background of 1.2.

In turn, B5 registered a Signal/background of 1.1.

In the case of B6, the Signal/background is 0.9.

Regarding B7, the Signal/background turned out to be 1.

The molecule B8 had a Signal/background of 1.1.

In turn, B9 registered a Signal/background of 1.

Turning to B10, the Signal/background is 1.2.

The next assay concerns the target T4, DPYSL4 peptide complexed with HLA-A*02:01 on T2 cells (human).
T4 construct: whole, on cells
The assay is described as follows: flow cytometry, peptide-loaded T2 cells.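 Further: binding of single-chain Fv antibody constructs, raised in XenoMouse, to peptide-pulsed T2 cells measured by flow cytometry.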
Procedure: as §1
The molecule B1 returned a Signal/background of 1.2.

Consider B2, for which the Signal/background was 1.1.

B3 gave a Signal/background of 1.

Regarding B4, the Signal/background is 1.1.

In turn, B5 registered a Signal/background of 0.9.

On to B6, for which the Signal/background is 1.1.

The molecule B7 had a Signal/background of 1.

On to B8, for which the Signal/background amounted to 1.

Consider B9, for which the Signal/background amounted to 1.1.

B10: the Signal/background stood at 1.

For the next assay, the target named is T5, SLK peptide complexed with HLA-A*02:01 on T2 cells (human).
T5 construct: whole, on cells
In words: flow cytometry, peptide-loaded T2 cells.
Procedure: as §1
As to B1, the Signal/background is 1.4.

In the case of B2, the Signal/background was 1.1.

Consider B3, for which the Signal/background came out at 1.1.

As to B4, the Signal/background worked out at 1.2.

The molecule B5 gave a Signal/background of 1.1.

B6 showed a Signal/background of 1.1.

On to B7, for which the Signal/background turned out to be 1.

Regarding B8, the Signal/background was 1.1.

With B9, the Signal/background amounted to 1.2.

As to B10, the Signal/background was 1.

The target of another assay is T6, MYOF peptide complexed with HLA-A*02:01 on T2 cells (human).
T6 construct: whole, on cells
In words: flow cytometry, peptide-loaded T2 cells.
Procedure: as §1
For B1, the Signal/background was 1.1.

B2 registered a Signal/background of 1.1.

In turn, B3 returned a Signal/background of 1.1.

Consider B4, for which the Signal/background stood at 1.1.

In turn, B5 gave a Signal/background of 1.

B6 returned a Signal/background of 0.9.

B7 had a Signal/background of 0.9.

Turning to B8, the Signal/background is 1.

In turn, B9 registered a Signal/background of 1.1.

In turn, B10 yielded a Signal/background of 1.2.

Another assay addresses T7, KEA peptide complexed with HLA-A*02:01 on T2 cells (human).
T7 construct: whole, on cells
In words: flow cytometry, peptide-loaded T2 cells.
Procedure: as §1
With B1, the Signal/background was determined as 1.

In turn, B2 showed a Signal/background of 1.1.

For B3, the Signal/background is 0.9.

B4 had a Signal/background of 1.

For B5, the Signal/background came to 1.

The molecule B6 registered a Signal/background of 0.9.

B7 registered a Signal/background of 1.

B8 returned a Signal/background of 0.9.

As for B9, the Signal/background was 1.

The molecule B10 returned a Signal/background of 0.9.

The next assay addresses T8, ADF peptide complexed with HLA-A*02:01 on T2 cells (human).
T8 construct: whole, on cells
In words: flow cytometry, peptide-loaded T2 cells.
Procedure: as §1
B1 came in with a Signal/background of 1.

In turn, B2 returned a Signal/background of 1.

For the molecule B3, the Signal/background worked out at 0.9.

In turn, B4 came in with a Signal/background of 1.1.

Consider B5, for which the Signal/background came to 1.

With B6, the Signal/background came out at 1.1.

Regarding B7, the Signal/background is 1.3.

In turn, B8 registered a Signal/background of 1.

For the molecule B9, the Signal/background stood at 1.

With B10, the Signal/background was 1.

The target in another assay is T9, CNDP2 peptide complexed with HLA-A*02:01 on T2 cells (human).
T9 construct: whole, on cells; also called CNPD2
The assay is described as follows: flow cytometry, peptide-loaded T2 cells.
Procedure: as §1
Turning to B1, the Signal/background amounted to 1.

Molecule B2 had a Signal/background of 1.

As for B3, the Signal/background is 0.9.

B4 came in with a Signal/background of 1.

As to B5, the Signal/background amounted to 1.

For the molecule B6, the Signal/background was found to be 0.8.

On to B7, for which the Signal/background was determined as 0.8.

B8 gave a Signal/background of 0.9.

Take B9: the Signal/background was found to be 1.

In turn, B10 displayed a Signal/background of 1.

For the next assay, the target named is T10, COX14 peptide complexed with HLA-A*02:01 on T2 cells (human).
T10 construct: whole, on cells
In words: flow cytometry, peptide-loaded T2 cells.
Procedure: as §1
In the case of B1, the Signal/background is 1.1.

As for B2, the Signal/background is 1.

For B3, the Signal/background worked out at 1.

B4 yielded a Signal/background of 1.1.

B5 came in with a Signal/background of 1.

Take B6: the Signal/background was 1.2.

With B7, the Signal/background was 1.

On to B8, for which the Signal/background came to 0.9.

Regarding B9, the Signal/background came out at 0.9.

Molecule B10 displayed a Signal/background of 1.1.
